{
  "source": "patent US11708423B2",
  "about": "“Chimeric engulfment receptor molecules and methods of use” (CERO THERAPEUTICS, INC., priority 2017, dated 2023)",
  "tested_on": "H1703 non-small cell lung cancer cells",
  "assay": "Killing of paclitaxel treated H1703 cells by CER21+ human primary B cells",
  "format": "cell-based",
  "details": "Paclitaxel 30 μM, target:effector 5:1, 3 hours, vs EGFRt B cells",
  "experimental": "Human primary B cells were transduced with pLenti Tim4-TLR8 (CER21) lentivirus expressing truncated EGFR as a transduction marker and stained with CELLTRACE Violet as described in Example 1. One day prior to setting up a co-culture assay, H1703 non-small cell lung cancer cells were incubated with phosphatidylserine inducing chemotherapy Paclitaxel (30 μM) in serum-free media for 24 hours. Floating and adherent H1703 cells were collected, centrifuged, incubated with pHrodo red (1 ng/μL) for 15 minutes at room temperature in PBS, washed, and then plated in a non-adherent 96 well plate. Human CER21+ B cells and H1703 cells were co-cultured at a target cell to effector cell ratio of 5:1 at 37° C. for 3 hours. B cells transduced with truncated EGFR were used as control. The plate was then imaged using a 20X objective, Keyence BZ-X710 microscope (FIG. 21). Cells undergoing apoptosis show increasing Red fluorescence as the intracellular pH drops in the earliest stages of apoptosis (FIG. 21, top row). Adjacent cells not induced by Paclitaxel treatment remain only dimly fluorescent. Apoptotic measurements in the presence of CER21+ B cells were quantified as the Area under the Curve of red fluorescent objects and outlined in blue using automated software (FIG. 21, bottom row; FIG. 22), for each high powered field. White arrows show apoptosis events.",
  "data": [
    {"molecule": "CER21: Tim4 binding and transmembrane domains, TLR8 signaling domain; SEQ ID NO:88 (protein, CER21 chimeric engulfment receptor) MSKGLLLLWLVTELWWLYLTPAASEDTIIGFLGQPVTLPCHYLSWSQSRNSMCWGKGSCPNSKCNAELLRTDGTRIISRKSTKYTLLGKVQFGEVSLTISNTNRGDSGVYCCRIEVPGWFNDVKKNVRLELRRATTTKKPTTTTRPTTTPYVTTTTPELLPTTVMTTSVLPTTTPPQTLATTAFSTAVTTCPSTTPGSFSQETTKGSAFTTESETLPASNHSQRSMMTISTDIAVLRPTGSNPGILPSTSQLTTQKTTLTTSESLQKTTKSHQINSRQTILIIACCVGFVLMVLLFLAFLHHLFYWDVWFIYNVCLAKVKGYRSLSTSQTFYDAYISYDTKDASVTDWVINELRYHLEESRDKNVLLCLEERDWDPGLAIIDNLMQSINQSKKTVFVLTKKYAKSWNFKTAFYLALQRLMDENMDVIIFILLEPVLQHSQYLRLRQRICKSSILQWPDNPKAEGLFWQTLRNVVLTENDSRYNNMYVDSIKQY", "values": [
      {"measurement": "killing of paclitaxel treated H1703 cells (apoptotic object area)", "result": "enhance killing of target cells at sub-therapeutic dose of chemotherapy"}
    ]}
  ]
}
